This test has as its target ZFHD-FKBP fusion with 3 copies of the drug binding domain (3xFKBP). The test can be described thus: cell-based or functional assay.

Regarding “FRB-TA fusion (FRB fragment of FRAP/mTOR fused to a portion of human NF-KB p65 as transcription activator)”, the luciferase expression in mice (Xenogen imaging) after rapamycin 2 mg/kg IP, against pre-induction; Group 2, transcription factor unit under the CMV promoter was more than 2 logs and the luciferase expression in mice (Xenogen imaging) after rapamycin 2 mg/kg IP, against pre-induction; Group 4, transcription factor unit under the TBG promoter is more than 100 fold.

The record behind these values is patent US20120058102A1.
